Results: patent US20240018252A1

Biological target: human CD3 (huCD3ed) (human) (UniProt P07766)
Assay: Biacore SPR, antibody as ligand, hCD3ed 80 nM-0.64 nM, kinetic fit

Sequence of human CD3 (huCD3ed) (human) (P07766 23-126, chain 1 of 2): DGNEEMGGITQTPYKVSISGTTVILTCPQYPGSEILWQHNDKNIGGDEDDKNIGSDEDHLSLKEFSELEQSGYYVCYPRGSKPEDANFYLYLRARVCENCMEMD
Sequence of human CD3 (huCD3ed) (human) (P04234 22-105, chain 2 of 2, further chain): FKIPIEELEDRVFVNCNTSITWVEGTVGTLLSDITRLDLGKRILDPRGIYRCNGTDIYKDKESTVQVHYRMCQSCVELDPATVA

Kd: 10.7 nM
t1/2: 3.8 min
Substance: SP34 (antibody)
